Measurements as given in patent US7572434B2, “Method for assessing the effect of a drug on long term memory formation” (Cold Spring Harbor Laboratory, priority 1994, dated 2009).
Residue numbers refer to the chain shown, from its start.

T1: dCREB2-a (UniProt Q9VWW0)
T1 sequence: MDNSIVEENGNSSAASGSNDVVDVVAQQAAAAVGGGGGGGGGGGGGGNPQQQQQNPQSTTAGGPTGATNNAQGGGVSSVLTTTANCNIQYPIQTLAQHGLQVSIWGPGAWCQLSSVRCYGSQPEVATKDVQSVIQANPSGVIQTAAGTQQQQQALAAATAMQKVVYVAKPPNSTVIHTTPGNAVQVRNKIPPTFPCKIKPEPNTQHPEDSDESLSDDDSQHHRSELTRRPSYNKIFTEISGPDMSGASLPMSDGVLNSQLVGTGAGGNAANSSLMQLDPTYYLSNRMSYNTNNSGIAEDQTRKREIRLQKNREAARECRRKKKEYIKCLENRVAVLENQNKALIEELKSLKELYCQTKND

B1: dCREB2-b: Drosophila dCREB2 isoform lacking exons 2 and 6, antagonist of dCREB2-a, expressed from RSV-dCREB2-b (protein)
chain: MDNSIVEENGNSSAASGSNDVVDVVAQQAAAAVGGGGGGGGGGGGGNPQQQQQNPQSTTAGGPTGATNNAQGGGVSSVLTTTANCNIQYPIQTLAQHGLQVQSVIQANPSGVIQTAAGTQQQQQALAAATAMQKVVYVAKPPNSTVIHTTPGNAVQIPPTFPCKIKPEPNTQHPEDSDESLSDDDSQHHRSELTRRPSYNKIFTEISGPDMSDNSGIAEDQTRKREIRLQKNREAARECRRKKKEYIKCLENRVAVLENQNKALIEELKSLKELYCQTKND
B2: mLZ-dCREB2-b: leucine-zipper mutant of dCREB2-b; middle two leucines converted to valines (protein)
chain: B1 chain with L257V, L264V

Experiments:
dCREB2-a = target: T1, dCREB2-a; assay: cell_activity; details: F9 cells; dCREB2-a plus PKA relative to PKA alone
[1] = tested on: PKA-responsive transcription (CRE-directed reporter) in F9 cells; assay: PKA-responsive transcription from the CRE-containing D(-71) CAT reporter in transiently transfected F9 cells; format: cell-based; details: cotransfected with dCREB2-a, PKA and reporter
Experimental: Undifferentiated F9 cells were maintained and transfected using the calcium phosphate method as described in Darrow, A. L. et al., “Maintenance and Use of F9 Teratocarcinoma Cells”, In Meth. Enzymol., v. 190 (1990), except that chloroquine was added to […] immediately before transfection and precipitates were washed off ten hours after transfection, at which time the dishes received fresh chloroquine-free medium. Amounts of DNA in transfections were made equivalent by adding RSV-0 where required. Cells were harvested 30 hours after transfection. Extracts were made by three cycles of freeze/thawing, with brief vortexing between cycles. Particulate matter was cleared from extracts by ten minutes of centrifugation in the cold. β-galactosidase assays were performed as described in Miller, J. H., Experiments in Molecular Genetics, Cold Spring Harbor Laboratory, Cold Spring Harbor, N.Y., 1972. CAT assays were performed as described in Sheen, J. Y. and B. Seed, Gene, 67: 271-277 (1988) using aliquots of extract heat-treated at 65° C. for ten minutes and centrifuged for ten minutes to remove debris. Results reported are from three experiments run on different days with at least three dishes per condition within each experiment. Error bars represent standard error of the mean, with error propagation taken into account (Grossman, M. and H. W. Norton, J. Hered., 71: 295-297 (1980)).
F9 cells were transiently transfected with 10 μg of D(−71) CAT plasmid as a CRE-directed reporter. 5 μg of RSV-βgal reporter was included in each dish as a normalization control for transfection efficiency. Different groups received 8 μg of dCREB2-a expression vector and 4 μg of PKA expression vector, separately or in combination. Results are expressed as CAT/Pgal enzyme activity ratios, standardized to values obtained with PKA-transfected dishes. […]
Two different dCREB2 isoforms, dCREB2-a and dCREB2-b, have opposite roles in PKA-responsive transcription. […] CREB-dependent changes in gene expression were measured using a cotransfected construct that has a CRE-containing promoter fused to a reporter gene.

Molecule | activity (dCREB2-a) | effect on PKA-dependent activation by dCREB2-a [1]
D(-71) CAT rat somatostatin promoter CRE fragment | 5.4 fold | 
B1 |  | nearly complete block
B2 |  | failed to block
